{"source": "paper PMC5998024", "about": "“Hydrophobic pore gates regulate ion permeation in polycystic kidney disease 2 and 2L1 channels” (Nature Communications, 2018)", "molecular_target": "the molecule itself", "experiment": "cryo-EM structure; single-particle cryo-EM of purified PKD2 F604P (53-792) in amphipols A8-35; C4 symmetry imposed, reconstruction without imposed symmetry also showed C4 symmetry; 3.5 Å", "data": [{"protein": "maltose binding protein fused human PKD2 protein, residues 53-792, harboring the F604P GOF mutation (domain or fragment, UniProt Q13563-1 53-792, looked up, human PKD2 (polycystin-2, TRPP2), residues 53-792 (E53-D792), with the gain-of-function mutation F604P; cytoplasmic N- and C-termini not seen in the map; also called PKD2 F604P; F604P mutant; source: HEK293S GnTI- cells, transduced with baculovirus, purified (amylose resin, amphipols A8-35, Superdex 200)) EIEMQRIRQAAARDPPAGAAASPSPPLSSCSRQAWSRDNPGFEAEEEEEEVEGEEGGMVVEMDVEWRPGSRRSAASSAVSSVGARSRGLGGYHGAGHPSGRRRRREDQGPPCPSPVGGGDPLHRHLPLEGQPPRVAWAERLVRGLRGLWGTRLMEESSTNREKYLKSVLRELVTYLLFLIVLCILTYGMMSSNVYYYTRMMSQLFLDTPVSKTEKTNFKTLSSMEDFWKFTEGSLLDGLYWKMQPSNQTEADNRSFIFYENLLLGVPRIRQLRVRNGSCSIPQDLRDEIKECYDVYSVSSEDRAPFGPRNGTAWIYTSEKDLNGSSHWGIIATYSGAGYYLDLSRTREETAAQVASLKKNVWLDRGTRATFIDFSVYNANINLFCVVRLLVEFPATGGVIPSWQFQPLKLIRYVTTFDFFLAACEIIFCFFIFYYVVEEILEIRIHKLHYFRSFWNCLDVVIVVLSVVAIGINIYRTSNVEVLLQFLEDQNTFPNFEHLAYWQIQFNNIAAVTVFFVWIKLFKFINFNRTMSQLSTTMSRCAKDLFGFAIMPFIIFLAYAQLAYLVFGTQVDDFSTFQECIFTQFRIILGDINFAEIEEANRVLGPIYFTTFVFFMFFILLNMFLAIINDTYSEVKSDLAQQKAEMELSDLIRKGYHKALVKLKLKKNTVDDISESLRQGGGKLNFDELRQDLKGKGHTDAEIEAIFTKYDQDGDQELTEHEHQQMRDDLEKEREDLDLD", "values": [{"measurement": "stoichiometry N", "result": 4}]}]}
